Results from PMC7647119.

Target: T1, MADS29-His (Oryza sativa) (UniProt Q6H711)
T1 sequence: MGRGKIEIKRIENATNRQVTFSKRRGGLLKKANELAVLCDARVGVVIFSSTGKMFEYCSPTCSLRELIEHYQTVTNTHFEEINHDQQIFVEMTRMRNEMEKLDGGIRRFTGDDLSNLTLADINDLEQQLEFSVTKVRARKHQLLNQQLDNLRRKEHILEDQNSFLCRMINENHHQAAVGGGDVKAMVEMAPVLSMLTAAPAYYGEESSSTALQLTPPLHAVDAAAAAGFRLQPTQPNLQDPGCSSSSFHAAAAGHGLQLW
Assay: EMSA
Conditions: LightShift Chemiluminescent EMSA Kit per manufacturer; buffer, salt, pH and temperature not stated

Sequence | binding
ATTTTGCTCATTTGGTATAGATCTTTCTTACATATATAAGACTGATCTCTATAGTGGTGA (double strand) [POsAsp1 -1412 CArG probe] | binds
TCTATAGACTAGTCAGCATTTTTTTTAGCTCCATATTTGGATTTGTCAACTTCAGAAAAG (double strand) [POsAsp1 -770 CArG probe] | binds
